In article PMC10793500, “Structural insights into RNA cleavage by a novel family of bacterial RNases” (Research Square, 2023):

Target: the molecule itself
Assay: crystal structure; apo YicC; hanging drop vapor diffusion, 0.1M Tris pH 8.5, 0.3M lithium sulfate, 25% PEG 3350; six copies in the asymmetric unit

B1: YicC (E. coli endoribonuclease, proposed name RNase CS) (enzyme, UniProt P23839 1-287, looked up)
chain: MIRSMTAYARREIKGEWGSATWEMRSVNQRYLETYFRLPEQFRSLEPVVRERIRSRLTRGKVECTLRYEPDVSAQGELILNEKLAKQLVTAANWVKMQSDEGEINPVDILRWPGVMAAQEQDLDAIAAEILAALDGTLDDFIVARETEGQALKALIEQRLEGVTAEVVKVRSHMPEILQWQRERLVAKLEDAQVQLENNRLEQELVLLAQRIDVAEELDRLEAHVKETYNILKKKEAVGRRLDFMMQEFNRESNTLASKSINAEVTNSAIELKVLIEQMREQIQNIE
notes: YicC of E. coli, the prototypical member of the YicC family of endoribonucleases; Expressed from a modified pET47b vector; also called apo YicC; source: E. coli (culture of EG1261, IPTG induced), purified (Ni-NTA, SUMO-protease cleavage, Superdex 200; for cryo-EM also Hitrap Q)
Q: Which “stoichiometry N” value does the source give for B1 here?
A: Its value is 6.
